The target of test [1] is T1, EGFR-Wt (Homo sapiens, UniProt P00533).
T1 construct: with the advantage of testing full-length integral membrane proteins; (GGGGS)2 linker-Cub (human ubiquitin aa 35-76)-GAL4(1-147)-mNFkB(364-550) (C); expressed in transfected cells
In words: MaMTH EGFR-interactor screen, lentiviral preys against EGFR-wildtype bait (interaction score). In kind it is cell-based. The note with it: MaMTH interaction score of prey with EGFR-Wt bait, mean. A digest of the protocol: (§1)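 5×GAL4UAS-luciferase HEK293T reporter cells were lentivirally infected with preys (MOI ~0.3-0.4) and puromycin-selected ≥48 h. They were then transfected in triplicate with the EGFR bait, and luciferase was read 24 h later. Score is fold-change over averaged negative-control preys; >1 denotes interaction.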

The subject of test [2] is EGFR-Wt. Described as above. The note with it: ratio of EGFR-Wt mean to EGFR-L858R mean interaction score. Format: cell-based, human. The essentials: as §1
Test [3] addresses T2, EGFR-L858R (Homo sapiens, UniProt P00533, L858R).
T2 construct: with the advantage of testing full-length integral membrane proteins; (GGGGS)2 linker-Cub (human ubiquitin aa 35-76)-GAL4(1-147)-mNFkB(364-550) (C); expressed in transfected cells
Put plainly: MaMTH EGFR-interactor screen, lentiviral preys against EGFR-L858R bait (interaction score). Format: cell-based. As to conditions: MaMTH interaction score of prey with EGFR-L858R bait. A digest of the protocol: as §1

EGFR-Wt mean, Wt/L858R and EGFR-L858R mean data for eight molecules are collected here from patent US9958461B2, “Detection of protein to protein interactions” (THE GOVERNING COUNCIL OF THE UNIVERSITY OF TORONTO, priority 2013, dated 2018).

B1: SH3GL2 (protein, UniProt Q99962 1-352, looked up)
Endophilin-A1: MSVAGLKKQFHKATQKVSEKVGGAEGTKLDDDFKEMERKVDVTSRAVMEIMTKTIEYLQPNPASRAKLSMINTMSKIRGQEKGPGYPQAEALLAEAMLKFGRELGDDCNFGPALGEVGEAMRELSEVKDSLDIEVKQNFIDPLQNLHDKDLREIQHHLKKLEGRRLDFDYKKKRQGKIPDEELRQALEKFDESKEIAESSMFNLLEMDIEQVSQLSALVQAQLEYHKQAVQILQQVTVRLEERIRQASSQPRREYQPKPRMSLEFPTGDSTQPNGGLSHTGTPKPSGVQMDQPCCRALYDFEPENEGELGFKEGDIITLTNQIDENWYEGMLHGHSGFFPINYVEILVALPH
In the case of B1, the EGFR-Wt mean in test [1] was determined as 4.58. In test [2], the Wt/L858R is reported as 0.58. For the same molecule, the EGFR-L858R mean in test [3] is 7.85.

B2: WASF3 (protein, UniProt Q9UPY6 1-502, looked up)
Actin-binding protein WASF3: MPLVKRNIEPRHLCRGALPEGITSELECVTNSTLAAIIRQLSSLSKHAEDIFGELFNEANNFYIRANSLQDRIDRLAVKVTQLDSTVEEVSLQDINMKKAFKSSTVQDQQVVSKNSIPNPVADIYNQSDKPPPLNILTPYRDDKKDGLKFYTDPSYFFDLWKEKMLQDTEDKRKEKRRQKEQKRIDGTTREVKKVRKARNRRQEWNMMAYDKELRPDNRLSQSVYHGASSEGSLSPDTRSHASDVTDYSYPATPNHSLHPQPVTPSYAAGDVPPHGPASQAAEHEYRPPSASARHMALNRPQQPPPPPPPQAPEGSQASAPMAPADYGMLPAQIIEYYNPSGPPPPPPPPVIPSAQTAFVSPLQMPMQPPFPASASSTHAAPPHPPSTGLLVTAPPPPGPPPPPPGPPGPGSSLSSSPMHGPPVAEAKRQEPAQPPISDARSDLLAAIRMGIQLKKVQEQREQEAKREPVGNDVATILSRRIAVEYSDSDDDSEFDENDWSD
For the molecule B2, the EGFR-Wt mean in test [1] stood at 1.30. In test [2], the Wt/L858R came to 0.61. For the same molecule, in test [3], the EGFR-L858R mean was 2.15.

B3: PDCD6IP (protein, UniProt Q8WUM4 2-868, looked up)
Programmed cell death …: ATFISVQLKKTSEVDLAKPLVKFIQQTYPSGGEEQAQYCRAAEELSKLRRAAVGRPLDKHEGALETLLRYYDQICSIEPKFPFSENQICLTFTWKDAFDKGSLFGGSVKLALASLGYEKSCVLFNCAALASQIAAEQNLDNDEGLKIAAKHYQFASGAFLHIKETVLSALSREPTVDISPDTVGTLSLIMLAQAQEVFFLKATRDKMKDAIIAKLANQAADYFGDAFKQCQYKDTLPKEVFPVLAAKHCIMQANAEYHQSILAKQQKKFGEEIARLQHAAELIKTVASRYDEYVNVKDFSDKINRALAAAKKDNDFIYHDRVPDLKDLDPIGKATLVKSTPVNVPISQKFTDLFEKMVPVSVQQSLAAYNQRKADLVNRSIAQMREATTLANGVLASLNLPAAIEDVSGDTVPQSILTKSRSVIEQGGIQTVDQLIKELPELLQRNREILDESLRLLDEEEATDNDLRAKFKERWQRTPSNELYKPLRAEGTNFRTVLDKAVQADGQVKECYQSHRDTIVLLCKPEPELNAAIPSANPAKTMQGSEVVNVLKSLLSNLDEVKKEREGLENDLKSVNFDMTSKFLTALAQDGVINEEALSVTELDRVYGGLTTKVQESLKKQEGLLKNIQVSHQEFSKMKQSNNEANLREEVLKNLATAYDNFVELVANLKEGTKFYNELTEILVRFQNKCSDIVFARKTERDELLKDLQQSIAREPSAPSIPTPAYQSSPAGGHAPTPPTPAPRTMPPTKPQPPARPPPPVLPANRAPSATAPSPVGAGTAAPAPSQTPGSAPPPQAQGPPYPTYPGYPGYCQMPMPMGYNPYAYGQYNMPYPPVYHQSPGQAPYPGPQQPSYPFPQPPQQSYYPQQ
Regarding B3, in test [1], the EGFR-Wt mean turned out to be 7.39. Moreover, the Wt/L858R in test [2] was 0.53. In addition, in test [3], the EGFR-L858R mean is 14.05.

B4: MAP3K3 (protein, UniProt Q99759 1-626, looked up)
Mitogen-activated protein …: MDEQEALNSIMNDLVALQMNRRHRMPGYETMKNKDTGHSNRQSDVRIKFEHNGERRIIAFSRPVKYEDVEHKVTTVFGQPLDLHYMNNELSILLKNQDDLDKAIDILDRSSSMKSLRILLLSQDRNHNSSSPHSGVSRQVRIKASQSAGDINTIYQPPEPRSRHLSVSSQNPGRSSPPPGYVPERQQHIARQGSYTSINSEGEFIPETSEQCMLDPLSSAENSLSGSCQSLDRSADSPSFRKSRMSRAQSFPDNRQEYSDRETQLYDKGVKGGTYPRRYHVSVHHKDYSDGRRTFPRIRRHQGNLFTLVPSSRSLSTNGENMGLAVQYLDPRGRLRSADSENALSVQERNVPTKSPSAPINWRRGKLLGQGAFGRVYLCYDVDTGRELASKQVQFDPDSPETSKEVSALECEIQLLKNLQHERIVQYYGCLRDRAEKTLTIFMEYMPGGSVKDQLKAYGALTESVTRKYTRQILEGMSYLHSNMIVHRDIKGANILRDSAGNVKLGDFGASKRLQTICMSGTGMRSVTGTPYWMSPEVISGEGYGRKADVWSLGCTVVEMLTEKPPWAEYEAMAAIFKIATQPTNPQLPSHISEHGRDFLRRIFVEARQRPSAEELLTHHFAQLMY
The molecule B4 had an EGFR-Wt mean in test [1] of 2.01. Further, in test [2], the Wt/L858R worked out at 0.58. In test [3], the EGFR-L858R mean worked out at 3.46.

B5: HDAC7 (protein, UniProt Q8WUI4 1-952, looked up)
Histone deacetylase 7: MDLRVGQRPPVEPPPEPTLLALQRPQRLHHHLFLAGLQQQRSVEPMRLSMDTPMPELQVGPQEQELRQLLHKDKSKRSAVASSVVKQKLAEVILKKQQAALERTVHPNSPGIPYRTLEPLETEGATRSMLSSFLPPVPSLPSDPPEHFPLRKTVSEPNLKLRYKPKKSLERRKNPLLRKESAPPSLRRRPAETLGDSSPSSSSTPASGCSSPNDSEHGPNPILGSEALLGQRLRLQETSVAPFALPTVSLLPAITLGLPAPARADSDRRTHPTLGPRGPILGSPHTPLFLPHGLEPEAGGTLPSRLQPILLLDPSGSHAPLLTVPGLGPLPFHFAQSLMTTERLSGSGLHWPLSRTRSEPLPPSATAPPPPGPMQPRLEQLKTHVQVIKRSAKPSEKPRLRQIPSAEDLETDGGGPGQVVDDGLEHRELGHGQPEARGPAPLQQHPQVLLWEQQRLAGRLPRGSTGDTVLLPLAQGGHRPLSRAQSSPAAPASLSAPEPASQARVLSSSETPARTLPFTTGLIYDSVMLKHQCSCGDNSRHPEHAGRIQSIWSRLQERGLRSQCECLRGRKASLEELQSVHSERHVLLYGTNPLSRLKLDNGKLAGLLAQRMFVMLPCGGVGVDTDTIWNELHSSNAARWAAGSVTDLAFKVASRELKNGFAVVRPPGHHADHSTAMGFCFFNSVAIACRQLQQQSKASKILIVDWDVHHGNGTQQTFYQDPSVLYISLHRHDDGNFFPGSGAVDEVGAGSGEGFNVNVAWAGGLDPPMGDPEYLAAFRIVVMPIAREFSPDLVLVSAGFDAAEGHPAPLGGYHVSAKCFGYMTQQLMNLAGGAVVLALEGGHDLTAICDASEACVAALLGNRVDPLSEEGWKQKPNLNAIRSLEAVIRVHSKYWGCMQRLASCPDSWVPRVPGADKEEVEAVTALASLSVGILAEDRPSEQLVEEEEPMNL
Consider B5, for which the EGFR-Wt mean in test [1] is 2.37. For the same molecule, the Wt/L858R in test [2] was determined as 0.55. Also, the EGFR-L858R mean in test [3] came to 4.35.

B6: PAK1 (protein, UniProt Q13153 2-545, looked up)
Serine/threonine-protein …: SNNGLDIQDKPPAPPMRNTSTMIGAGSKDAGTLNHGSKPLPPNPEEKKKKDRFYRSILPGDKTNKKKEKERPEISLPSDFEHTIHVGFDAVTGEFTGMPEQWARLLQTSNITKSEQKKNPQAVLDVLEFYNSKKTSNSQKYMSFTDKSAEDYNSSNALNVKAVSETPAVPPVSEDEDDDDDDATPPPVIAPRPEHTKSVYTRSVIEPLPVTPTRDVATSPISPTENNTTPPDALTRNTEKQKKKPKMSDEEILEKLRSIVSVGDPKKKYTRFEKIGQGASGTVYTAMDVATGQEVAIKQMNLQQQPKKELIINEILVMRENKNPNIVNYLDSYLVGDELWVVMEYLAGGSLTDVVTETCMDEGQIAAVCRECLQALEFLHSNQVIHRDIKSDNILLGMDGSVKLTDFGFCAQITPEQSKRSTMVGTPYWMAPEVVTRKAYGPKVDIWSLGIMAIEMIEGEPPYLNENPLRALYLIATNGTPELQNPEKLSAIFRDFLNRCLEMDVEKRGSAKELLQHQFLKIAKPLSSLTPLIAAAKEATKNNH
In the case of B6, the EGFR-Wt mean in test [1] is on record as 1.50. Moreover, in test [2], the Wt/L858R amounted to 0.55. Besides, the EGFR-L858R mean in test [3] came out at 2.70.

B7: CDC25C (protein, UniProt P30307 2-473, looked up)
M-phase inducer phosphatase 3: STELFSSTREEGSSGSGPSFRSNQRKMLNLLLERDTSFTVCPDVPRTPVGKFLGDSANLSILSGGTPKRCLDLSNLSSGEITATQLTTSADLDETGHLDSSGLQEVHLAGMNHDQHLMKCSPAQLLCSTPNGLDRGHRKRDAMCSSSANKENDNGNLVDSEMKYLGSPITTVPKLDKNPNLGEDQAEEISDELMEFSLKDQEAKVSRSGLYRSPSMPENLNRPRLKQVEKFKDNTIPDKVKKKYFSGQGKLRKGLCLKKTVSLCDITITQMLEEDSNQGHLIGDFSKVCALPTVSGKHQDLKYVNPETVAALLSGKFQGLIEKFYVIDCRYPYEYLGGHIQGALNLYSQEELFNFFLKKPIVPLDTQKRIIIVFHCEFSSERGPRMCRCLREEDRSLNQYPALYYPELYILKGGYRDFFPEYMELCEPQSYCPMHHQDHKTELLRCRSQSKVQEGERQLREQIALLVKDMSP
As for B7, the EGFR-Wt mean in test [1] came to 2.12. Also, the Wt/L858R in test [2] was determined as 0.54. For the same molecule, the EGFR-L858R mean in test [3] was 3.94.

B8: VAV1 (protein, UniProt P15498 1-845, looked up)
Proto-oncogene vav: MELWRQCTHWLIQCRVLPPSHRVTWDGAQVCELAQALRDGVLLCQLLNNLLPHAINLREVNLRPQMSQFLCLKNIRTFLSTCCEKFGLKRSELFEAFDLFDVQDFGKVIYTLSALSWTPIAQNRGIMPFPTEEESVGDEDIYSGLSDQIDDTVEEDEDLYDCVENEEAEGDEIYEDLMRSEPVSMPPKMTEYDKRCCCLREIQQTEEKYTDTLGSIQQHFLKPLQRFLKPQDIEIIFINIEDLLRVHTHFLKEMKEALGTPGAANLYQVFIKYKERFLVYGRYCSQVESASKHLDRVAAAREDVQMKLEECSQRANNGRFTLRDLLMVPMQRVLKYHLLLQELVKHTQEAMEKENLRLALDAMRDLAQCVNEVKRDNETLRQITNFQLSIENLDQSLAHYGRPKIDGELKITSVERRSKMDRYAFLLDKALLICKRRGDSYDLKDFVNLHSFQVRDDSSGDRDNKKWSHMFLLIEDQGAQGYELFFKTRELKKKWMEQFEMAISNIYPENATANGHDFQMFSFEETTSCKACQMLLRGTFYQGYRCHRCRASAHKECLGRVPPCGRHGQDFPGTMKKDKLHRRAQDKKRNELGLPKMEVFQEYYGLPPPPGAIGPFLRLNPGDIVELTKAEAEQNWWEGRNTSTNEIGWFPCNRVKPYVHGPPQDLSVHLWYAGPMERAGAESILANRSDGTFLVRQRVKDAAEFAISIKYNVEVKHIKIMTAEGLYRITEKKAFRGLTELVEFYQQNSLKDCFKSLDTTLQFPFKEPEKRTISRPAVGSTKYFGTAKARYDFCARDRSELSLKEGDIIKILNKKGQQGWWRGEIYGRVGWFPANYVEEDYSEYC
For B8, in test [1], the EGFR-Wt mean is listed as 1.45. Besides, the Wt/L858R in test [2] is listed as 0.54. Besides, in test [3], the EGFR-L858R mean stood at 2.68.
